PMC5834517

Assays:
[1] = molecular target: WT FcγRIIIa (glycosylated, expressed by HEK293 cells) (UniProt P08637)
[2] = molecular target: Mut FcγRIIIa (non-glycosylated); experiment: SPR; Biacore T200; FcγRIIIa (WT or Mut) captured on a Ni2+-loaded NTA sensor chip at 350 RU; Rituximab fractions injected as analyte at 30 μL/min; PBS with 0.005% Tween-20; global fit, 1:1 Langmuir model; KD = koff/kon
[3] = molecular target: Mut FcγRIIIa (engineered, non-glycosylated Fcγ receptor IIIa) (UniProt P08637); experiment: SPR; van't Hoff analysis: temperature dependence of KD; Mut FcγRIIIa on the surface, antibody fractions as analyte

| Substance | EC50 of FcγRIIIa activation (NFAT-driven luciferase in Jurkat/FcγRIIIa/NFAT-Luc cells with Daudi cells; corresponds to ADCC) [1] | Kd [2] | dH [3] |
| --- | --- | --- | --- |
| Rituximab, peak 2 of the FcγRIIIa-immobilized column (antibody) |  | 1010 nM |  |
| Rituximab fraction Peak 3 of the FcγRIIIa column (antibody) | 0.05 µg/mL |  | -13.1 kcal/mol |
| Rituximab fraction Peak 1 of the FcγRIIIa column (antibody) | 0.2 µg/mL |  | -13.3 kcal/mol |
| Rituximab fraction Peak 2 of the FcγRIIIa column (antibody) | 0.19 µg/mL |  | -13.3 kcal/mol |

Continued, values first:

| EC50 of FcγRIIIa activation (NFAT-driven luciferase in Jurkat/FcγRIIIa/NFAT-Luc cells with Daudi cells; corresponds to ADCC) [1] | Kd [2] | dH [3] | Substance |
| --- | --- | --- | --- |
| 0.13 µg/mL |  |  | Rituximab (Roche), before separation (antibody) |
|  | 701 nM |  | Rituximab, peak 3 of the FcγRIIIa-immobilized column (antibody) |
|  | 1490 nM |  | Rituximab, peak 1 of the FcγRIIIa-immobilized column (antibody) |
